Measurements taken from patent US20260256927A1 (Merck Sharp & Dohme, published 2026).

What was measured:
[1] = biological target: T1, IL-2Rβ-Fc (Acro Biosystems, catalog #ILB-H5253) (UniProt P14784 27-239, limits assumed); test: SPR, kinetic binding to IL-2 receptor
T1 construct: Bought reagent; Captured on an anti-Fc chip as SPR ligand; also called CD122; not shown: Fc part of the bought fusion
T1 sequence (looked up): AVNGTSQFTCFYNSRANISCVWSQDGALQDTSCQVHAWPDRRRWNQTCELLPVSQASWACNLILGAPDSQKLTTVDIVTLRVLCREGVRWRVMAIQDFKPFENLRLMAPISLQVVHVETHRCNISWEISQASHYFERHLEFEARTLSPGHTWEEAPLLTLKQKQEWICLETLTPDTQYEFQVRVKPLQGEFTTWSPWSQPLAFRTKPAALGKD

[2] = biological target: T2, IL-2Rα-Fc (Acro Biosystems, catalog #ILA-H5251) (UniProt P01589 22-217, limits assumed); test: SPR, kinetic binding to IL-2 receptor
T2 construct: Bought reagent; Captured on an anti-Fc chip as SPR ligand; also called CD25; not shown: Fc part of the bought fusion
T2 sequence (looked up): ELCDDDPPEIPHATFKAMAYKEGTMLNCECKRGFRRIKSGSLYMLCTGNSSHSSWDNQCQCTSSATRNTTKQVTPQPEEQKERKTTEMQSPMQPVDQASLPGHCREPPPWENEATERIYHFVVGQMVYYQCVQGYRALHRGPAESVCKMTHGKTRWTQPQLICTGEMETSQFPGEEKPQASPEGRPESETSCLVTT

[3] = biological target: T2, IL-2Rα-Fc (Acro Biosystems, catalog …); test: SPR, receptor-Fc captured on anti-Fc chip

B1: Aldesleukin-6His_S4/Y30/K34 pAMF F41K (SP10684) conjugated to SC547 stump (ligand)
chain: MPTSFSTKKTQLQLEHLLLDLQMILNGINNFKNPFLTRMLTKKFYMPKKATELKHLQCLEEELKPLEEVLNLAQSKNFHLRPRDLISNINVIVLELKGSETTFMCEYADETATIVEFLNRWITFSQSIISTLTGGSHHHHHH
modifications: X5, X31, X35 = pAMF (S4, Y30, K34), each conjugated to SC547 (conjugation stump)
notes: also called SP10724 stump conjugate
[1]
  Kd: 3000 nM

B2: Aldesleukin-6His_S4/Y30/K34/Q73 pAMF (SP10686) conjugated to SC547 stump (ligand)
chain: MPTSFSTKKTQLQLEHLLLDLQMILNGINNFKNPFLTRMLTFKFYMPKKATELKHLQCLEEELKPLEEVLNLAFSKNFHLRPRDLISNINVIVLELKGSETTFMCEYADETATIVEFLNRWITFSQSIISTLTGGSHHHHHH
modifications: X5, X31, X35, X74 = pAMF (S4, Y30, K34, Q73), each conjugated to SC547 (conjugation stump)
notes: also called SP10726 stump conjugate
[2]
  Kd: 30 nM
[1]
  Kd: 600 nM

B3: Aldesleukin-6His_S4/Y30/K34/R80 pAMF F41K (SP10688) conjugated to SC547 stump (ligand)
chain: MPTSFSTKKTQLQLEHLLLDLQMILNGINNFKNPFLTRMLTKKFYMPKKATELKHLQCLEEELKPLEEVLNLAQSKNFHLFPRDLISNINVIVLELKGSETTFMCEYADETATIVEFLNRWITFSQSIISTLTGGSHHHHHH
modifications: X5, X31, X35, X81 = pAMF (S4, Y30, K34, R80), each conjugated to SC547 (conjugation stump)
notes: also called SP10728 stump conjugate
[1]
  Kd: 2000 nM

B4: Aldesleukin-6His_S4/Y30/K34/V114 pAMF (SP10687) conjugated to SC547 stump (ligand)
chain: MPTSFSTKKTQLQLEHLLLDLQMILNGINNFKNPFLTRMLTFKFYMPKKATELKHLQCLEEELKPLEEVLNLAQSKNFHLRPRDLISNINVIVLELKGSETTFMCEYADETATIFEFLNRWITFSQSIISTLTGGSHHHHHH
modifications: X5, X31, X35, X115 = pAMF (S4, Y30, K34, V114), each conjugated to SC547 (conjugation stump)
notes: also called SP10727 stump conjugate
[2]
  Kd: 100 nM
[1]
  Kd: 1000 nM

B5: SP10724 (Aldesleukin-6His_S4/Y30/K34 pAMF F41K conjugated to SC579) (ligand)
chain: MPTSFSTKKTQLQLEHLLLDLQMILNGINNFKNPFLTRMLTKKFYMPKKATELKHLQCLEEELKPLEEVLNLAQSKNFHLRPRDLISNINVIVLELKGSETTFMCEYADETATIVEFLNRWITFSQSIISTLTGGSHHHHHH
modifications: X5, X31, X35 = pAMF (S4, Y30, K34), each conjugated to SC579 (releasable 20 kDa mPEG Fmoc-DBCO linker)
notes: also called SP10724 PEG conjugate
[3]
  binding result: no binding

B6: SP10725 (Aldesleukin-6His_S4/Y30/K34/R80 pAMF conjugated to SC579) (ligand)
chain: MPTSFSTKKTQLQLEHLLLDLQMILNGINNFKNPFLTRMLTFKFYMPKKATELKHLQCLEEELKPLEEVLNLAQSKNFHLFPRDLISNINVIVLELKGSETTFMCEYADETATIVEFLNRWITFSQSIISTLTGGSHHHHHH
modifications: X5, X31, X35, X81 = pAMF (S4, Y30, K34, R80), each conjugated to SC579 (releasable 20 kDa mPEG Fmoc-DBCO linker)
notes: also called SP10725 PEG conjugate
[3]
  binding result: no binding

B7: SP10728 (Aldesleukin-6His_S4/Y30/K34/R80 pAMF F41K conjugated to SC579) (ligand)
chain: MPTSFSTKKTQLQLEHLLLDLQMILNGINNFKNPFLTRMLTKKFYMPKKATELKHLQCLEEELKPLEEVLNLAQSKNFHLFPRDLISNINVIVLELKGSETTFMCEYADETATIVEFLNRWITFSQSIISTLTGGSHHHHHH
modifications: X5, X31, X35, X81 = pAMF (S4, Y30, K34, R80), each conjugated to SC579 (releasable 20 kDa mPEG Fmoc-DBCO linker)
notes: also called SP10728 PEG conjugate
[3]
  binding result: no binding

B8: Aldesleukin_S4/Y30/K34 pAMF (SP10480) conjugated to SC547 stump (ligand)
chain: MPTSFSTKKTQLQLEHLLLDLQMILNGINNFKNPFLTRMLTFKFYMPKKATELKHLQCLEEELKPLEEVLNLAQSKNFHLRPRDLISNINVIVLELKGSETTFMCEYADETATIVEFLNRWITFSQSIISTLT
modifications: X5, X31, X35 = pAMF (S4, Y30, K34), each conjugated to SC547 (conjugation stump)
notes: also called SP10504 stump conjugate
[1]
  Kd: 700 nM

B9: Aldesleukin_S4/Y30/K34/V114 pAMF (SP10777) conjugated to SC547 stump (ligand)
chain: MPTSFSTKKTQLQLEHLLLDLQMILNGINNFKNPFLTRMLTFKFYMPKKATELKHLQCLEEELKPLEEVLNLAQSKNFHLRPRDLISNINVIVLELKGSETTFMCEYADETATIFEFLNRWITFSQSIISTLT
modifications: X5, X31, X35, X115 = pAMF (S4, Y30, K34, V114), each conjugated to SC547 (conjugation stump)
notes: also called SP10785 stump conjugate
[1]
  Kd: 200 nM

B10: Aldesleukin_S4/K34/V114 pAMF (SP10774) conjugated to SC547 stump (ligand)
chain: MPTSFSTKKTQLQLEHLLLDLQMILNGINNYKNPFLTRMLTFKFYMPKKATELKHLQCLEEELKPLEEVLNLAQSKNFHLRPRDLISNINVIVLELKGSETTFMCEYADETATIFEFLNRWITFSQSIISTLT
modifications: X5, X35, X115 = pAMF (S4, K34, V114), each conjugated to SC547 (conjugation stump)
notes: also called SP10782 stump conjugate
[2]
  Kd: 100 nM
[1]
  Kd: 500 nM

B11: Aldesleukin_S4/Y30/K34/Q73 pAMF (SP10776) conjugated to SC547 stump (ligand)
chain: MPTSFSTKKTQLQLEHLLLDLQMILNGINNFKNPFLTRMLTFKFYMPKKATELKHLQCLEEELKPLEEVLNLAFSKNFHLRPRDLISNINVIVLELKGSETTFMCEYADETATIVEFLNRWITFSQSIISTLT
modifications: X5, X31, X35, X74 = pAMF (S4, Y30, K34, Q73), each conjugated to SC547 (conjugation stump)
notes: also called SP10784 stump conjugate
[2]
  Kd: 9 nM
[1]
  Kd: 300 nM
